Measurements: the RNAGym collection of RNA variant scans (doi:10.7554/elife.80360)

B1: Hairpin Ribozyme (parent)
chain: GUCCUCUUUCACGUGCGCGUGAAAGAGAGAAGUGAACCAGAGAAACACACGUUGUGGUAUAUUACCUGGUA

Variants of: B1
Assay: self-cleavage, relative activity (ratio to wild type); higher = more cleavage; co-transcriptional

Row | Variant | self-cleavage
1 | GUCCUCUUUCACGUGCGCGUGAAAGAGAGAAGUGAACCAGUGAAACACACGUUGUAGUAUAUUACCUGGUA | 0.285
2 | GUCCUCUUUCACGUGCGCGUGAAAGAGAGAAGUGAACCAGAAAAACACACGUUGUGGUAUAUUUCCUGGUA | 0.107
3 | GUCCUCUUUCACGUGCGCGUGAAAGAGAGAAGUGAACCAGUGAAACACAGGUUGUGGUAUAUUACCUGGUA | 0.756
4 | GUCCUCUUUCACGUGCGCGUGAAAGAGAGAAGUGAACCAGAAAAACACACGUUGUGGUAUAAUACCUGGUA | 0.151
5 | GUCCUCUUUCACGUGCGCGUGAAAGAGAGAAGUGAACCAGAAAAACACACGUUGUGGUAUACUACCUGGUA | 0.133
6 | GUCCUCUUUCACGUGCGCGUGAAAGAGAGAAGUGAACCAGGGAAACACAAGUUGUGGUAUAUUACCUGGUA | 0.255
7 | GUCCUCUUUCACGUGCGCGUGAAAGAGAGAAGUGAACCAGUCAAACACACGUUGUGGUAUAUUACCUGGUA | 0.464
8 | GUCCUCUUUCACGUGCGCGUGAAAGAGAGAAGUGAACCAGAAAAACACACGUUGUGGUAUAUUACCUGAUA | 0.112
9 | GUCCUCUUUCACGUGCGCGUGAAAGAGAGAAGUGAACCAGUGAAACACACGUUGUGGUAUAUUACCUGGAA | 0.776
10 | GUCCUCUUUCACGUGCGCGUGAAAGAGAGAAGUGAACCAGUGAAACACACGUUGUGGUAUAUUACCUGGGA | 1.1
11 | GUCCUCUUUCACGUGCGCGUGAAAGAGAGAAGUGAACCAGAAAAACACACGAUGUGGUAUAUUACCUGGUA | 0.221
12 | GUCCUCUUUCACGUGCGCGUGAAAGAGAGAAGUGAACCAGAAAAACACACGUUGUGGUAUAUUACUUGGUA | 0.147
13 | GUCCUCUUUCACGUGCGCGUGAAAGAGAGAAGUGAACCAGGGAAACACACGUGGUGGUAUAUUACCUGGUA | 1.05
14 | GUCCUCUUUCACGUGCGCGUGAAAGAGAGAAGUGAACCAGAAAAACACACGUUGUGGCAUAUUACCUGGUA | 0.21
15 | GUCCUCUUUCACGUGCGCGUGAAAGAGAGAAGUGAACCAGAAAAACACACGUUGUGGUAAAUUACCUGGUA | 0.0887
16 | GUCCUCUUUCACGUGCGCGUGAAAGAGAGAAGUGAACCAGUGAAACACACUUUGUGGUAUAUUACCUGGUA | 1.5
17 | GUCCUCUUUCACGUGCGCGUGAAAGAGAGAAGUGAACCAGAAAAACACACGUUGUCGUAUAUUACCUGGUA | 0.105
18 | GUCCUCUUUCACGUGCGCGUGAAAGAGAGAAGUGAACCAGAAAAACACACGUUGUGGUAUCUUACCUGGUA | 0.0818
19 | GUCCUCUUUCACGUGCGCGUGAAAGAGAGAAGUGAACCAGAAAAACACACGUUGUGGUAUUUUACCUGGUA | 0.125

Row | Variant | self-cleavage
20 | GUCCUCUUUCACGUGCGCGUGAAAGAGAGAAGUGAACCAGUGAAACACACGUUGUGGUAUAUUCCCUGGUA | 0.153
21 | GUCCUCUUUCACGUGCGCGUGAAAGAGAGAAGUGAACCAGUGAAACACACGUUGUGGUAUAUUGCCUGGUA | 0.372
22 | GUCCUCUUUCACGUGCGCGUGAAAGAGAGAAGUGAACCAGUGAAACACACGUUGUGGUAUAUUUCCUGGUA | 0.258
23 | GUCCUCUUUCACGUGCGCGUGAAAGAGAGAAGUGAACCAGAAAAUCACACGUUGUGGUAUAUUACCUGGUA | 0.109
24 | GUCCUCUUUCACGUGCGCGUGAAAGAGAGAAGUGAACCAGGGAAACACACGUUGUGGUAUAUUACCUGUUA | 0.42
25 | GUCCUCUUUCACGUGCGCGUGAAAGAGAGAAGUGAACCAGUGAAACACGCGUUGUGGUAUAUUACCUGGUA | 1.06
26 | GUCCUCUUUCACGUGCGCGUGAAAGAGAGAAGUGAACCAGUGAAACACCCGUUGUGGUAUAUUACCUGGUA | 0.238
27 | GUCCUCUUUCACGUGCGCGUGAAAGAGAGAAGUGAACCAGGGAAACACACGUUGGGGUAUAUUACCUGGUA | 0.138
28 | GUCCUCUUUCACGUGCGCGUGAAAGAGAGAAGUGAACCAGACGAACACACGUUGUGGUAUAUUACCUGGUA | 0.177
29 | GUCCUCUUUCACGUGCGCGUGAAAGAGAGAAGUGAACCAGGGAAACACACGUUGUGGUAUACUACCUGGUA | 0.198
30 | GUCCUCUUUCACGUGCGCGUGAAAGAGAGAAGUGAACCAGGGAAACACACGUUGUGGUAUAAUACCUGGUA | 0.0775
31 | GUCCUCUUUCACGUGCGCGUGAAAGAGAGAAGUGAACCAGGGAAACACACGUUGUGGUAUAUUACCUUGUA | 0.364
32 | GUCCUCUUUCACGUGCGCGUGAAAGAGAGAAGUGAACCAGGGAAACACACGUUGUGUUAUAUUACCUGGUA | 0.184
33 | GUCCUCUUUCACGUGCGCGUGAAAGAGAGAAGUGAACCAGGGAAACACACGUUGUGAUAUAUUACCUGGUA | 0.184
34 | GUCCUCUUUCACGUGCGCGUGAAAGAGAGAAGUGAACCAGAAAAACACACGUUGUGGUAUAUUACCUGGCA | 0.128
35 | GUCCUCUUUCACGUGCGCGUGAAAGAGAGAAGUGAACCAGUGAGACACACGUUGUGGUAUAUUACCUGGUA | 0.153
36 | GUCCUCUUUCACGUGCGCGUGAAAGAGAGAAGUGAACCAGUGACACACACGUUGUGGUAUAUUACCUGGUA | 0.115
37 | GUCCUCUUUCACGUGCGCGUGAAAGAGAGAAGUGAACCAGUGAAACACACGUGGUGGUAUAUUACCUGGUA | 1.16
38 | GUCCUCUUUCACGUGCGCGUGAAAGAGAGAAGUGAACCAGUGUAACACACGUUGUGGUAUAUUACCUGGUA | 0.187
